Data from paper PMC4176187.

Molecular target: 40S ribosomal subunits purified from rabbit reticulocyte lysate (rabbit) (UniProt G1U0Q2)
Test: protein transfer assay

| Substance | percent of the protein transferred from scAlu RNA to 40S [%] |
| --- | --- |
| human recombinant SRP9/14A5 (basic pentapeptide K96-K100 of SRP14 mutated) (from UniProt P49458 1-86; P37108 1-136) (complex) | 16 |
| human recombinant SRP9/14 protein heterodimer, wild type (from UniProt P49458 1-86; P37108 1-136) (complex) | 41 |
